Consider 32 sequences from the supplement of paper PMC9170038.

For the data set, the system named is MS2 coat protein. The data set is described as follows: apparent KD of MS2 coat protein; designed switch direction (-1 OFF switch, 1 ON switch): -1; higher = weaker reporter binding. In a few lines:
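Each step of the titration lasted 0.8–1.5 h at the lowest concentration and 10–20 min at the highest. The protein, SNAP-549-labelled MS2 coat protein, went from 0.7 or 1.5 nM doubling to 3 µM over RNA switches transcribed on Illumina chips by stalled E. coli RNA polymerase. Normalised cluster fluorescence was curve-fitted, and the per-design median over clusters is given as apparent KD.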

Setting [1] is: Eterna round: R95, input ligand: microRNA oligo, concentration not stated.
Where [2] appears, read: Eterna round: R95, input ligand: FMN 200 uM.
[3] abbreviates: Eterna round: R95, input ligand: none.
Where [4] appears, read: input ligand: microRNA oligo, concentration not stated.

“AUCAUGUAAGGAUAUCGUGCAAGUUUCAAAAGAGGCUUGUGCGAGAAGGUACAUGAGGAUCACCCAUGUAGGUU [Omei Ex4 B10] (Eterna round: R97, puzzle: Exclusion 4)”: the “apparent KD of MS2 coat protein” value (input ligand: FMN 200 uM) is 57.8 nM and the “apparent KD of MS2 coat protein” value (input ligand: none) amounted to 584 nM.

On to “CUGAUGUUAGGAUAUCAGGCGCCCGCCACUGGCAGGGCGCAUGAGAAGGGACAUGAGGAUCACCCAUGUAGUAA [Anorbeus] (puzzle: Exclusion 4)”, for which, under setting [1], the “apparent KD of MS2 coat protein” value was determined as 26.3 nM.

With “GACCUACAUGAGGAUCACCCAUGUGAGGAUAUAUUGUUAUUUAUAAUAUUUUUUAGUGGUAGAAGGCGCGUGAU [JR_Exc1_Sub018] (Eterna round: R97, puzzle: Exclusion 1)”, the “apparent KD of MS2 coat protein” value (input ligand: FMN 200 uM) is 17.9 nM and the “apparent KD of MS2 coat protein” value (input ligand: none) was found to be 20.2 nM.

“AUAAAACGAGGAUAUGCUGGGCUUCUGUGAUGCAUAUGCUCACAUGAGGAUCACCCAUGUAGAAGGUGUAAAAU [Laaceve] (puzzle: Exclusion 2)”: the “apparent KD of MS2 coat protein” value under setting [1] stood at 220 nM.

For the sequence “GCAGGAUAAGUCAGGAUAUACCUAUGGAUACAUAGGUAGAAGGGACAUGAGGAUCACCCAUGUGCCUCGCCUGC [Fiskers BMX 4 - 72] (puzzle: Brourd's mod of Exclusion 4)”, under setting [1], the “apparent KD of MS2 coat protein” value was 12.4 nM.

For “UUUAAUUUUUUUUUUUUACAAGCUUUUUGCUCGUCUUAUACAUGAGGAUCACCCAUGUGGGUGAAAGGUAAAUUAUC [JMF 64] (puzzle: Sensor v3, turn-off variant 2)”, the “apparent KD of MS2 coat protein” value reads like this: under setting [2], 46.8 nM; under setting [1], 21 nM; under setting [3], 54.2 nM.

Regarding “UUAUGAGAGCAGGAUAUCUUAUAAGUGUAUUAAAGAGAAGGGCUCACAUGAGGAUCACCCAUGUGGUCCUAGAU [LRO-Excl6-17-mod of 4.86 by jal] (Eterna round: R97, puzzle: Exclusion 6)”, the “apparent KD of MS2 coat protein” value runs as follows: (input ligand: FMN 200 uM) 106 nM; (input ligand: none) 33.3 nM.

In the case of “GAUCUACAUGAGGAUCACCCAUGUAAGGAUAUCUACAUUGAAGCCUCGGCUUCAAUGUAGAGAAGGUACAAUUA [E1/10-B2] (Eterna round: R97, puzzle: Exclusion 1)”, the “apparent KD of MS2 coat protein” value (input ligand: FMN 200 uM) was determined as 31.5 nM and the “apparent KD of MS2 coat protein” value (input ligand: none) is 32.4 nM.

For “AUAAUGUAAGGAUAUCAGUCGACUAGCCUCGGCUAGUCGACUGAGAAGGUACAUGAGGAUCACCCAUGUGUUUC [E4/12-A3] (Eterna round: R97, puzzle: Exclusion 4)”, the “apparent KD of MS2 coat protein” value was determined as 244 nM (input ligand: FMN 200 uM) and 35.6 nM (input ligand: none).

Regarding “UUUAAUUUUUUUUUUUUACAAGCUUUUUGCUCGUCUUAUACAUGAGGAUCACCCAUGUGGGUGGAAGGUAAAUUAUC [JMF 70] (puzzle: Sensor v3, turn-off variant 2)”, the “apparent KD of MS2 coat protein” value runs as follows: under setting [2], 79.4 nM; under setting [1], 26.7 nM; under setting [3], 176 nM.

Take “GUUUCGAGACGGAGAUCCGACAUGAGGAUCACCCAUGUCUCACAAGCUUUUUGCUCGUCUUAUACUCCUCUGUUCUC [Elimod 48 - Jieux - Sensor, turn-off variant 1] (Eterna round: R97, puzzle: Sensor, turn-off variant 1)”: the “apparent KD of MS2 coat protein” value (input ligand: FMN 200 uM) was found to be 15.6 nM and the “apparent KD of MS2 coat protein” value (input ligand: none) is 17.7 nM.

“AUUCGAAAGAUCCACAUGGACAUGAGGAUCACCCAUGUGCAAGCCUUUUUCUCGUCACUAUCGUCAAAAGACGAUAG [Omei Mir Offv1 A7] (Eterna round: R97, puzzle: Sensor, turn-off variant 1)”: the “apparent KD of MS2 coat protein” value runs as follows: (input ligand: FMN 200 uM) 744 nM; (input ligand: none) 848 nM.

“AGAGUGCUGCGAGGAUAUACAUGAGGAUCACCCAUGUAAAAGUGUGAGGCAAAGCCUCACACGAAGUAGAAGGCGCAGUACUCA [Mat - Exclusion NG 2 - Mod of JL - D34] (Eterna round: R96, puzzle: Exclusion NG 2)”: the “apparent KD of MS2 coat protein” value by setting is: (input ligand: FMN 200 uM) 12.8 nM; under setting [4], 9.85 nM; (input ligand: none) 25.2 nM.

As to “UUUGUGUAAGGAUAUGCGAGCCACGGAAAUAAAACGUGGAGGUAGAAGGUACAUGAGGAUCACCCAUGUAAAAC [Mod of Anonveat 21 - Jieux - Exclusion 4] (Eterna round: R97, puzzle: Exclusion 4)”, the “apparent KD of MS2 coat protein” value (input ligand: FMN 200 uM) was found to be 54.8 nM and the “apparent KD of MS2 coat protein” value (input ligand: none) was 30 nM.

As to “GUUAUGUCAGGAUAUGCUAAUGAUGAGUGAUCAGACAUGAUGUAGAAGGGACAUGAGGAUCACCCAUGUACUAA [EX4 #9] (Eterna round: R97, puzzle: Exclusion 4)”, the “apparent KD of MS2 coat protein” value by setting is: (input ligand: FMN 200 uM) 30.6 nM; (input ligand: none) 29 nM.

As for “GUCCUACAUGAGGAUCACCCAUGUGAGGAUAUGCGAUUAGCUGCUAGGUAGUUAGUAUGUAGAAGGCGCAUGAA [EX1 #77] (Eterna round: R97, puzzle: Exclusion 1)”, the “apparent KD of MS2 coat protein” value by setting is: (input ligand: FMN 200 uM) 15.9 nM; (input ligand: none) 14.6 nM.

Consider “AAGAUGCGGGUAGGAUAUGGAAAUUAAUAAAGACCAGAAGGACUGGUCACACAACAUGAGGAUCACCCAUGUGUGUGUUGUGAA [AK ExNG1-6] (Eterna round: R96, puzzle: Exclusion NG 1)”, for which the “apparent KD of MS2 coat protein” value under setting [4] was 9.06 nM.

“GGUCCGUCAGUGAGGAUAUUGAGGAGGAGGAGGGACAAGAAGGCACAUGAGGAUCACCCAUGUAGGGACGGACG [Alacar 1st] (Eterna round: R97, puzzle: Brourd's mod of Exclusion 4)”: the “apparent KD of MS2 coat protein” value by setting is: (input ligand: FMN 200 uM) 46.4 nM; (input ligand: none) 21.2 nM.

In the case of “ACAUGACUGCUAGGAUAUAGAUGACAUGAGGAUCACCCAUGUUGUCCCAUGUUUAUGGAAACGGACUAGAAGGAGCAGCAUAUG [Ex NG2 #12] (Eterna round: R96, puzzle: Exclusion NG 2)”, the “apparent KD of MS2 coat protein” value (input ligand: FMN 200 uM) stood at 25.7 nM, the “apparent KD of MS2 coat protein” value under setting [4] turned out to be 24.8 nM and the “apparent KD of MS2 coat protein” value (input ligand: none) is 30.2 nM.

In the case of “UUUUUGUCAGGAUAUGACUAGAUGCACGUUAGUGUAUUUACUUAGAAGGGACAUGAGGAUCACCCAUGUAUUCC [Bring Us a Shrubbery-13] (puzzle: Exclusion 4)”, the “apparent KD of MS2 coat protein” value under setting [1] was 26.2 nM.

“UUAUACGUUGAGGAUAUGUUAUUUAGUAUAGUUACAGAAGGCGAUACAUGAGGAUCACCCAUGUUUAUGGGCAU [Ex-6 Malc#1] (puzzle: Exclusion 6)”: under setting [1], the “apparent KD of MS2 coat protein” value stood at 196 nM.

In the case of “UUGACGGCAGGAUAUACAUGAGGAUCACCCAUGUAAAUUUUUCGUUUAACUUGAAUGUGUAGAAGGGCCCAACC [Ex3 #78] (Eterna round: R97, puzzle: Exclusion 3)”, the “apparent KD of MS2 coat protein” value by setting is: (input ligand: FMN 200 uM) 16.6 nM; (input ligand: none) 17.8 nM.

“CGCUGGUGAGGAUAUGGGUGUUUUUACAUGAGGAUCACCCAUGUGGAGUAGCAUGUGGGUCCAGAAGGCGCGAGUG [-24.2, -22.5 kcal, 21% A] (Eterna round: R97, puzzle: Exclusion 5)”: the “apparent KD of MS2 coat protein” value (input ligand: FMN 200 uM) stood at 398 nM and the “apparent KD of MS2 coat protein” value (input ligand: none) is 309 nM.

Consider “GCGAAAGCAAGCAGGUGAAACAUGAGGAUCACCCAUGUCCUCAUUUGCUCGUCUUAUAAGCUAUGCGAAAGCAUAGC [Sensor 3, v1 - 3] (puzzle: Sensor v3, turn-off variant 1)”, for which the “apparent KD of MS2 coat protein” value was determined as 13.7 nM under setting [2], 113 nM under setting [1] and 12.5 nM under setting [3].

Turning to “CCGAAUAAGCAGGAUAUCGUAUCGGAAACGAUACGAGAAGGGUUAACAUGAGGAUCACCCAUGUUCCUUAACGG [Fiskers Ex 6 - 17] (puzzle: Exclusion 6)”, the “apparent KD of MS2 coat protein” value under setting [1] came out at 17.4 nM.

With “CAACUGUCAGGAUAUCGUGCAUACAACGAAAGUUCUAUGUGCGAGAAGGGACAUGAGGAUCACCCAUGUAAACG [Omei Ex4 A27] (Eterna round: R97, puzzle: Exclusion 4)”, the “apparent KD of MS2 coat protein” value runs as follows: (input ligand: FMN 200 uM) 199 nM; (input ligand: none) 60.9 nM.

For “UUUAAUUUUUUUUUUUUACAAGCUUUUUGCUCGUCUUAUACAUGAGGAUCACCCAUGUGGGUAGAGGGUAAAUUAUC [JMF 82] (puzzle: Sensor v3, turn-off variant 2)”, the “apparent KD of MS2 coat protein” value is, setting by setting: under setting [2], 15.1 nM; under setting [1], 38.9 nM; under setting [3], 14.9 nM.

Take “AGGUGCUUCUGGAGACAUGAGGAUCACCCAUGUCGAGUUAGCGAGGAUAUCGGUAAGGCAUGUGAUGAGAAGGCGCAAACCGAU [Ex NG3 #50] (Eterna round: R96, puzzle: Exclusion NG 3)”: the “apparent KD of MS2 coat protein” value came out at 22.8 nM (input ligand: FMN 200 uM), 12.7 nM under setting [4] and 24.3 nM (input ligand: none).

Take “CCGACCCGAGGAUAUUGUACUGCUGACAUGAGGAUCACCCAUGUAUGUUAACUCGGCCGACGAGAAGGCGGCGACA [BotMod 3 - Jieux - Exclusion 5] (Eterna round: R97, puzzle: Exclusion 5)”: the “apparent KD of MS2 coat protein” value runs as follows: (input ligand: FMN 200 uM) 18.4 nM; (input ligand: none) 22.1 nM.

“GGAUCGAGUGUGAGGAUAUGCUGGUCCUUGGAUCAGCAGAAGGCACAUGAGGAUCACCCAUGUGAAGACGAUCC [Mat - Exclusion 4 - JL Mod - D73] (puzzle: Brourd's mod of Exclusion 4)”: under setting [1], the “apparent KD of MS2 coat protein” value was 21.2 nM.

Turning to “UGGCUGCUCAGGGAGUGUGACAUGAGGAUCACCCAUGUGGUGGUAGGGAACAAGCUUUUUGCACGUACUUAUGAGUC [JR_SV3TOV1_Sub009] (puzzle: Sensor v3, turn-off variant 1)”, the “apparent KD of MS2 coat protein” value turned out to be 840 nM under setting [2], 107 nM under setting [1] and 388 nM under setting [3].

Regarding “UUUGUUUGCACAGGAUAUUGUUAUUUUUUUUUUCAAGAAGGGUGUACAUGAGGAUCACCCAUGUUAUGGUUUUAUCUUUUACUU [JR_ExcNG1_Sub011] (Eterna round: R96, puzzle: Exclusion NG 1)”, the “apparent KD of MS2 coat protein” value turned out to be 764 nM (input ligand: FMN 200 uM), 765 nM under setting [4] and 1270 nM (input ligand: none).
